# PMC4888784
# Target: PIN1 (UniProt Q13526)
# Assay: His-tagged peptide binding to GST-PIN1
# Conditions: reference: nonphosphorylated S203/P204 peptide; sites S203
substance,measurement,value
"PGK1 (phosphoglycerate kinase 1) oligopeptide containing S203/P204, borders not given (from UniProt P00558) pS203/P204 peptide",binding against the reference,stronger
